Target: pak1_rat Pak1 (UniProt P35465)
Sequence (P35465 whole entry): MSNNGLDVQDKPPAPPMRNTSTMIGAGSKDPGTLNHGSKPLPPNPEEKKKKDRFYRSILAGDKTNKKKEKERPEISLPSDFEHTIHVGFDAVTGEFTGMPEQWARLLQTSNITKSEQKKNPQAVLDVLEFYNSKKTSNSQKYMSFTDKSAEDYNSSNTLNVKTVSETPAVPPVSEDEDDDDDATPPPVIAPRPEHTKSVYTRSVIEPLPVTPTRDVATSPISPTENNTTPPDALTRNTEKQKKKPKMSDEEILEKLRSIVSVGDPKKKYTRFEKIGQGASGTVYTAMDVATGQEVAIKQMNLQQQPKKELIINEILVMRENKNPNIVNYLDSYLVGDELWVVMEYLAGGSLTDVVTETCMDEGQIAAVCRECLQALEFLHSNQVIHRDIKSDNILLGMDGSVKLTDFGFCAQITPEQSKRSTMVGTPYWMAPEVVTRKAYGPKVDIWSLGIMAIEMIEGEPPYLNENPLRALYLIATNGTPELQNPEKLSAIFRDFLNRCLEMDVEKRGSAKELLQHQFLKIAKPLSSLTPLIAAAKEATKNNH

Sequence of Serine/threonine-protein kinase OSR1 (Homo sapiens), O95747 K46A (O95747 whole entry K46A): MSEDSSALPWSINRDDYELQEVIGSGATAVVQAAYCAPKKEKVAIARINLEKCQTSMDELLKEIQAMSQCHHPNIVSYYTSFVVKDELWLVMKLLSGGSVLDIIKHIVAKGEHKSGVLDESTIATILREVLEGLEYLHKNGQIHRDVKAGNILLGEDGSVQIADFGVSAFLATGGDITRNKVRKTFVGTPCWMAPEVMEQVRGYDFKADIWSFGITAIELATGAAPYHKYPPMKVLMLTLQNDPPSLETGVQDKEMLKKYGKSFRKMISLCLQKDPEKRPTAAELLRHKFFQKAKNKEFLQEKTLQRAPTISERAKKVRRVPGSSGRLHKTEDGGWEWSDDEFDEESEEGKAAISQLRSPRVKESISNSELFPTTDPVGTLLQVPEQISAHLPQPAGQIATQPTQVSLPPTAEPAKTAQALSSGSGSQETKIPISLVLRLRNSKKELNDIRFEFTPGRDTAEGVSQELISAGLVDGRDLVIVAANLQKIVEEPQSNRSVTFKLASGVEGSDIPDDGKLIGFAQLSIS

- effect of a mutation on the interaction: decreasing interaction
Substance: Serine/threonine-protein kinase OSR1 (Homo sapiens), O95747 K46A
